One substance from publication PMC3900722 can be followed below.

For this assay, the target named is hemocyanin from Fissurella latimarginata (Fissurella latimarginata). In words: negative-stain transmission electron microscopy; purified FLH 100 µg/ml on parlodion-coated copper grid, stained with 1-2% aqueous uranyl acetate, 80 kV; quaternary structure of the assembled protein.

For “hemocyanin from Fissurella latimarginata (natural protein)”, the stoichiometry N came to 20 subunits.
